From the Immune Epitope Database (IEDB) come the findings set out here.

One assay deals with HLA-B*46:01. The assay is described as follows: IEDB peptide-MHC binding, purified MHC/direct/fluorescence; filed as Kd, often an IC50 or EC50 that approximates it; ≥ and ≤ were set here for values at or beyond the usual limits of such assays.
Assay [1] addresses HLA-A*11:01. The description is as above.
Assay [2] has as its target HLA-A*69:01. The description is as above.
In another assay the target is HLA-B*27:05. The assay is described as above.
The next assay deals with HLA-B*40:01. Described as above.
The target of assay [3] is HLA-A*31:01. Described as above.
Assay [4] addresses HLA-A*01:01. The assay is described as above.
Another assay deals with HLA-B*15:02. Described as above.
A further assay addresses HLA-A*26:01. The assay is described as above.
In another assay the target is HLA-A*02:01. The assay is described as above.
Assay [5] concerns the target HLA-B*35:01. Described as above.
Assay [6] deals with HLA-B*08:01. The assay is described as above.
In a further assay the target is HLA-A*03:01. The description is as above.
For assay [7], the target named is HLA-B*58:01. Described as above.
For the next assay, the target named is HLA-B*15:01. The assay is described as above.
For another assay, the target named is HLA-B*07:02. The assay is described as above.
A further assay has as its target HLA-B*44:02. Described as above.
For assay [8], the target named is HLA-A*11:01. The assay is described as follows: IEDB peptide-MHC binding, purified MHC/competitive/fluorescence; filed as Kd, often an IC50 or EC50 that approximates it; ≥ and ≤ were set here for values at or beyond the usual limits of such assays. To be noted: source organism: Human immunodeficiency virus 1.
In assay [9] the target is HLA-A*69:01. The description is as above. Conditions: source organism: Human immunodeficiency virus 1.
The next assay deals with HLA-A*68:02. The assay is described as above. To be noted: source organism: Human immunodeficiency virus 1.
Assay [10] concerns the target HLA-A*31:01. The description is as above. To be noted: source organism: Human immunodeficiency virus 1.
Assay [11] has as its target HLA-A*01:01. Described as above. Conditions: source organism: Human immunodeficiency virus 1.
In the next assay the target is HLA-B*15:17. Described as above. To be noted: source organism: Human immunodeficiency virus 1.
A further assay has as its target HLA-B*39:01. The assay is described as above. Conditions: source organism: Human immunodeficiency virus 1.
The target in the next assay is HLA-A*02:03. Described as above. To be noted: source organism: Human immunodeficiency virus 1.
Assay [12] concerns the target HLA-B*18:01. The description is as above. Conditions: source organism: Human immunodeficiency virus 1.
The target in another assay is HLA-A*30:01. The assay is described as above. Conditions: source organism: Human immunodeficiency virus 1.
Assay [13] deals with HLA-B*35:01. Described as above. To be noted: source organism: Human immunodeficiency virus 1.
The target in assay [14] is HLA-B*08:01. Described as above. To be noted: source organism: Human immunodeficiency virus 1.
Assay [15] addresses HLA-B*58:01. Described as above. To be noted: source organism: Human immunodeficiency virus 1.
Another assay deals with HLA-A*02:06. The assay is described as above. To be noted: source organism: Human immunodeficiency virus 1.
In another assay the target is HLA-A*26:02. The assay is described as above. To be noted: source organism: Human immunodeficiency virus 1.
The target in the next assay is HLA-B*57:01. The assay is described as above. Conditions: source organism: Human immunodeficiency virus 1.
Another assay has as its target HLA-A*02:16. As to the kind of experiment: IEDB peptide-MHC binding, purified MHC/direct/fluorescence; filed as Kd, often an IC50 or EC50 that approximates it; ≥ and ≤ were set here for values at or beyond the usual limits of such assays. To be noted: source organism: Mycobacterium tuberculosis.
The next assay deals with HLA-A*02:50. The assay is described as follows: IEDB peptide-MHC binding, purified MHC/competitive/fluorescence; filed as Kd, often an IC50 or EC50 that approximates it; ≥ and ≤ were set here for values at or beyond the usual limits of such assays.
The target of the next assay is HLA-C*03:03. The assay is described as follows: IEDB peptide-MHC binding, purified MHC/direct/fluorescence; filed as Kd, often an IC50 or EC50 that approximates it; ≥ and ≤ were set here for values at or beyond the usual limits of such assays. Conditions: source organism: Escherichia coli O157:H7 str. EDL933.
The target in assay [16] is HLA-B*18:01. The description is as above. To be noted: source organism: Escherichia coli O157:H7.
A further assay deals with HLA-A*24:02. The assay is described as above. Conditions: source organism: Escherichia coli O157:H7.
[17] abbreviates: source organism: Vibrio vulnificus.
Setting [18] is: source organism: Mycobacterium tuberculosis.
Setting [19] is: source organism: Giardia lamblia ATCC 50803.
[20] abbreviates: source organism: Listeria monocytogenes.
The mark [21] stands for this setting: source organism: Listeria monocytogenes serotype 4b str. H7858.
The mark [22] stands for this setting: source organism: Escherichia coli O157:H7.

In general, Kd refers to the concentration at which binding is half-saturated. Read a high Kd as a looser complex. Turning to IQTHCEVGY, the Kd with HLA-B*46:01 (setting [17]), in the assay with HLA-A*11:01 [1] (setting [17]), in the assay with HLA-A*69:01 [2] (setting [17]), with HLA-B*27:05 (setting [17]), in the assay with HLA-B*40:01 (setting [17]) and in the assay with HLA-A*31:01 [3] (setting [17]) was at least 20 µM throughout. Also, the Kd was at least 20 µM with HLA-A*01:01 [4] (setting [17]); at least 20 µM in the assay with HLA-B*15:02 (setting [17]); at least 20 µM in the assay with HLA-A*26:01 (setting [17]); at least 20 µM with HLA-A*02:01 (setting [17]); 0.94 µM with HLA-B*35:01 [5] (setting [17]); at least 20 µM with HLA-B*08:01 [6] (setting [17]). Moreover, the Kd in the assay with HLA-A*03:01 (setting [17]) was at least 20 µM; with HLA-B*58:01 [7] (setting [17]), at least 20 µM; with HLA-B*15:01 (setting [17]), 0.285 µM; in the assay with HLA-B*07:02 (setting [17]) it was at least 20 µM; with HLA-B*44:02 (setting [17]) it was at least 20 µM.
As for KSLFNTVATLY, the equilibrium dissociation constant (Kd) is 0.233 µM with HLA-A*11:01 [8]; 2.84 µM with HLA-A*69:01 [9]; 3.47 µM with HLA-A*68:02; at least 20 µM with HLA-A*31:01 [10]; 2.11 µM with HLA-A*01:01 [11]; 0.0038 µM in the assay with HLA-B*15:17. Moreover, the Kd is at least 20 µM with HLA-B*39:01; 0.19 µM in the assay with HLA-A*02:03; 0.242 µM with HLA-B*18:01 [12]; at least 20 µM with HLA-A*30:01; 2.41 µM with HLA-B*35:01 [13]; at least 20 µM in the assay with HLA-B*08:01 [14]. The Kd with HLA-B*58:01 [15] was 0.0028 µM; with HLA-A*02:06, 0.155 µM; with HLA-A*26:02 it was at least 20 µM; in the assay with HLA-B*57:01, 0.235 µM.
For LLLRPFWPA, the Kd with HLA-A*69:01 [2] (setting [18]) is 0.0303 µM; with HLA-A*02:16, 0.01 µM; in the assay with HLA-A*02:01 (setting [18]) it was 0.113 µM; with HLA-A*02:50 (setting [18]), 0.0091 µM.
For the sequence LLPYPIAGC, the equilibrium dissociation constant (Kd) with HLA-A*11:01 [1] (setting [19]) was at least 20 µM; with HLA-A*69:01 [2] (setting [19]), 4.2 µM; with HLA-B*27:05 (setting [19]), at least 20 µM; with HLA-B*40:01 (setting [19]) it was at least 20 µM; with HLA-A*31:01 [3] (setting [19]), at least 20 µM; with HLA-A*01:01 [4] (setting [19]), at least 20 µM. Further, the Kd was at least 20 µM with HLA-A*26:01 (setting [19]); 5.1 µM in the assay with HLA-A*02:01 (setting [19]); at least 20 µM with HLA-B*08:01 [6] (setting [19]); at least 20 µM in the assay with HLA-A*03:01 (setting [19]); at least 20 µM with HLA-B*58:01 [7] (setting [19]); at least 20 µM with HLA-B*15:01 (setting [19]). For the same sequence, the Kd with HLA-B*07:02 (setting [19]) is at least 20 µM; with HLA-B*44:02 (setting [19]) it was at least 20 µM; with HLA-A*02:50 (source organism: Giardia intestinalis ATCC 50581), 0.0235 µM.
Turning to LMKAPGTYH, the Kd with HLA-B*46:01 (setting [20]) is 4.83 µM; with HLA-B*15:02 (setting [20]), 0.258 µM; with HLA-B*35:01 [5] (setting [21]) it was at least 20 µM; in the assay with HLA-B*15:01 (setting [20]) it was 0.0668 µM; with HLA-B*07:02 (setting [21]), at least 20 µM.
Turning to YLFQWNDNV, the Kd in the assay with HLA-A*11:01 [1] (setting [22]) was at least 20 µM; with HLA-A*69:01 [2] (setting [22]), 0.0036 µM; with HLA-B*27:05 (setting [22]) it was at least 20 µM; in the assay with HLA-B*40:01 (setting [22]), at least 20 µM; with HLA-C*03:03 it was at least 20 µM; with HLA-A*01:01 [4] (setting [22]), at least 20 µM. Moreover, the dissociation constant (Kd) in the assay with HLA-A*02:01 (setting [22]) is 0.0021 µM; with HLA-B*18:01 [16], at least 20 µM; with HLA-A*24:02, at least 20 µM; with HLA-A*03:01 (setting [22]), at least 20 µM; in the assay with HLA-B*58:01 [7] (setting [22]), at least 20 µM; in the assay with HLA-B*15:01 (setting [22]) it was 1.71 µM. Further, the Kd was at least 20 µM in the assay with HLA-B*07:02 (setting [22]), at least 20 µM with HLA-B*44:02 (setting [22]) and at most 0.0001 µM with HLA-A*02:50 (source organism: Escherichia coli O157:H7 str. EDL933).
